Measured values taken from paper PMC6447562, “Structures of the wild-type MexAB–OprM tripartite pump reveal its complex formation and drug efflux mechanism” (Nature Communications, 2019).

B1: OprM, full length (natural protein)
chain: CSLIPDYQRPEAPVAAAYPQGQAYGQNTGAAAVPAADIGWREFFRDPQLQQLIGVALENNRDLRVAALNVEAFRAQYRIQRADLFPRIGVDGSGTRQRLPGDLSTTGSPAISSQYGVTLGTTAWELDLFGRLRSLRDQALEQYLATEQAQRSAQTTLVASVATAYLTLKADQAQLQLTKDTLGTYQKSFDLTQRSYDVGVASALDLRQAQTAVEGARATLAQYTRLVAQDQNALVLLLGSGIPANLPQGLGLDQTLLTEVPAGLPSDLLQRRPDILEAEHQLMAANASIGAARAAFFPSISLTANAGTMSRQLSGLFDAGSGSWLFQPSINLPIFTAGSLRASLDYAKIQKDINVAQYEKAIQTAFQEVADGLAARGTFTEQLQAQRDLVKASDEYYQLADKRYRTGVDNYLTLLDAQRSLFTAQQQLITDRLNQLTSEVNLYKALGGGWNQQTVTQQQTAKKEDPQA
notes: OprM (outer membrane factor), Pseudomonas aeruginosa, gene encoding full-length OprM; The full-length gene was expressed; also called OMF; outer membrane factor; source: E. coli C43(DE3), outer membranes solubilised with OG, purified (Ni-NTA, Superdex200, CYMAL-7)
B2: MexB, full length (natural protein)
chain: MSKFFIDRPIFAWVIALVIMLAGGLSILSLPVNQYPAIAPPAIAVQVSYPGASAETVQDTVVQVIEQQMNGIDNLRYISSESNSDGSMTITVTFEQGTDPDIAQVQVQNKLQLATPLLPQEVQRQGIRVTKAVKNFLMVVGVVSTDGSMTKEDLSNYIVSNIQDPLSRTKGVGDFQVFGSQYSMRIWLDPAKLNSYQLTPGDVSSAIQAQNVQISSGQLGGLPAVKGQQLNATIIGKTRLQTAEQFENILLKVNPDGSQVRLKDVADVGLGGQDYSINAQFNGSPASGIAIKLATGANALDTAKAIRQTIANLEPFMPQGMKVVYPYDTTPVVSASIHEVVKTLGEAILLVFLVMYLFLQNFRATLIPTIAVPVVLLGTFGVLAAFGFSINTLTMFGMVLAIGLLVDDAIVVVENVERVMAEEGLSPREAARKSMGQIQGALVGIAMVLSAVFLPMAFFGGSTGVIYRQFSITIVSAMALSVIVALILTPALCATMLKPIEKGDHGEHKGGFFGWFNRMFLSTTHGYERGVASILKHRAPYLLIYVVIVAGMIWMFTRIPTAFLPDEDQGVLFAQVQTPPGSSAERTQVVVDSMREYLLEKESSSVSSVFTVTGFNFAGRGQSSGMAFIMLKPWEERPGGENSVFELAKRAQMHFFSFKDAMVFAFAPPSVLELGNATGFDLFLQDQAGVGHEVLLQARNKFLMLAAQNPALQRVRPNGMSDEPQYKLEIDDEKASALGVSLADINSTVSIAWGSSYVNDFIDRGRVKRVYLQGRPDARMNPDDLSKWYVRNDKGEMVPFNAFATGKWEYGSPKLERYNGVPAMEILGEPAPGLSSGDAMAAVEEIVKQLPKGVGYSWTGLSYEERLSGSQAPALYALSLLVVFLCLAALYESWSIPFSVMLVVPLGVIGALLATSMRGLSNDVFFQVGLLTTIGLSAKNAILIVEFAKELHEQGKGIVEAAIEACRMRLRPIVMTSLAFILGVVPLAISTGAGSGSQHAIGTGVIGGMVTATVLAIFWVPLFYVAVSTLFKDEASKQQASVEKGQ
notes: MexB (RND transporter), Pseudomonas aeruginosa, full length; also called RND transporter; source: E. coli C43(DE3), membranes solubilised with DDM, purified (Ni-chelating Sepharose, Superdex200, CYMAL-7)

How the values were obtained:
[1] = biological target: the molecule itself; experiment: cryo-EM structure; MexA, MexB and OprM reconstituted in vitro, detergent replaced with amphipol A8-35, 50 mM HEPES-K pH 7.5; single-particle analysis; 0° and 60° states; without drug and with 10 mM novobiocin
OprM, full length [2] = biological target: B1; experiment: as above; conditions: both partners purified
OprM, full length [3] = biological target: B1; experiment: SEC; complex-formation experiment: MexA, MexB and OprM (wild type, or one of them mutated) mixed at 3:1:1 in buffer C, dialysed against buffer D (20 mM Na-citrate, 300 mM KCl, 0.02% CYMAL-7) at 4 °C, Superdex200 16/60, 0.5 mL/min; the read-out is the formation of the tripartite complex; conditions: both partners purified
MexB, full length = biological target: B2; experiment: as above; conditions: both partners purified

## B1
[1]
  stoichiometry N: 3

## B2
[1]
  stoichiometry N: 3

B3: MexA (a.a. 2-360) (natural protein)
chain: GKSEAPPPAQTPEVGIVTLEAQTVTLNTELPGRTNAFRIAEVRPQVNGIILKRLFKEGSDVKAGQQLYQIDPATYEADYQSAQANLASTQEQAQRYKLLVADQAVSKQQYADANAAYLQSKAAVEQARINLRYTKVLSPISGRIGRSAVTEGALVTNGQANAMATVQQLDPIYVDVTQPSTALLRLRRELASGQLERAGDNAAKVSLKLEDGSQYPLEGRLEFSEVSVDEGTGSVTIRAVFPNPNNELLPGMFVHAQLQEGVKQKAILAPQQGVTRDLKGQATALVVNAQNKVELRVIKADRVIGDKWLVTEGLNAGDKIITEGLQFVQPGVEVKTVPAKNVASAQKADAAPAKTDSKG
notes: MexA (membrane fusion protein), Pseudomonas aeruginosa, a.a; 2-360, lacks the signal peptide and the first cysteine; numbers count on: the mature protein; Six copies (a hexamer) stand in the assembled MexAB-OprM pump; also called MFP; membrane fusion protein; source: E. coli BL21-RILP(DE3), purified (Ni-NTA, TEV cleavage, Superdex200); not shown: His6, N-terminal, cleaved
OprM, full length [2]
  stoichiometry N: 2 MexA per OprM
[1]
  stoichiometry N: 6

B4: MexA R96D (natural protein, Pseudomonas aeruginosa, UniProt P52477 25-383, looked up)
chain: GKSEAPPPAQTPEVGIVTLEAQTVTLNTELPGRTNAFRIAEVRPQVNGIILKRLFKEGSDVKAGQQLYQIDPATYEADYQSAQANLASTQEQAQDYKLLVADQAVSKQQYADANAAYLQSKAAVEQARINLRYTKVLSPISGRIGRSAVTEGALVTNGQANAMATVQQLDPIYVDVTQPSTALLRLRRELASGQLERAGDNAAKVSLKLEDGSQYPLEGRLEFSEVSVDEGTGSVTIRAVFPNPNNELLPGMFVHAQLQEGVKQKAILAPQQGVTRDLKGQATALVVNAQNKVELRVIKADRVIGDKWLVTEGLNAGDKIITEGLQFVQPGVEVKTVPAKNVASAQKADAAPAKTDSKG
notes: MexA, Pseudomonas aeruginosa, a.a; 2-360 as m1; numbers count on: the mature protein; source: E. coli, expressed and purified as the wild type; not shown: His6, N-terminal, cleaved
OprM, full length [3]
  binding result: binds

B5: MexA L99D (natural protein, Pseudomonas aeruginosa, UniProt P52477 25-383, looked up)
chain: GKSEAPPPAQTPEVGIVTLEAQTVTLNTELPGRTNAFRIAEVRPQVNGIILKRLFKEGSDVKAGQQLYQIDPATYEADYQSAQANLASTQEQAQRYKDLVADQAVSKQQYADANAAYLQSKAAVEQARINLRYTKVLSPISGRIGRSAVTEGALVTNGQANAMATVQQLDPIYVDVTQPSTALLRLRRELASGQLERAGDNAAKVSLKLEDGSQYPLEGRLEFSEVSVDEGTGSVTIRAVFPNPNNELLPGMFVHAQLQEGVKQKAILAPQQGVTRDLKGQATALVVNAQNKVELRVIKADRVIGDKWLVTEGLNAGDKIITEGLQFVQPGVEVKTVPAKNVASAQKADAAPAKTDSKG
notes: as for B4
OprM, full length [3]
  binding result: binds
MexB, full length
  binding result: binds

B6: MexA R96A (natural protein, Pseudomonas aeruginosa, UniProt P52477 25-383, looked up)
chain: GKSEAPPPAQTPEVGIVTLEAQTVTLNTELPGRTNAFRIAEVRPQVNGIILKRLFKEGSDVKAGQQLYQIDPATYEADYQSAQANLASTQEQAQAYKLLVADQAVSKQQYADANAAYLQSKAAVEQARINLRYTKVLSPISGRIGRSAVTEGALVTNGQANAMATVQQLDPIYVDVTQPSTALLRLRRELASGQLERAGDNAAKVSLKLEDGSQYPLEGRLEFSEVSVDEGTGSVTIRAVFPNPNNELLPGMFVHAQLQEGVKQKAILAPQQGVTRDLKGQATALVVNAQNKVELRVIKADRVIGDKWLVTEGLNAGDKIITEGLQFVQPGVEVKTVPAKNVASAQKADAAPAKTDSKG
notes: as for B4
OprM, full length [3]
  binding result: binds
MexB, full length
  binding result: binds
